Experimental findings from patent publication US20220001043A1 (IMAGINAB, published 2022) are described below.

In experiment [1] the target is T1, human CD8 (Homo sapiens, UniProt P01732 22-235; A6NJW9 19-210).
T1 construct: CD8 as carried by purified human T cells, HPB-ALL leukemia cells, human tissues and CD8+ cells in patients; also called huCD8; CD8 glycoprotein
Description: binding to CD8 glycoprotein; method not given.

The target in experiment [2] is T1, human CD8. The experiment is described as follows: flow cytometry on human T cells carrying CD8. The method, then:
(§1) The binding affinity and specificity of IAB22M2C and Zr-Df-IAB22M2C to human CD8 expressed on cell surfaces were evaluated by flow cytometry for a several cell types, including HPB-ALL leukemia cells (DSMZ, Braunschweig, Germany), purified human T cells, and PC3 prostate cancer cells engineered to express huCD8 (ImaginAb, Inc.).

For experiment [3], the target named is T1, human CD8. Description: flow cytometry on HPB-ALL cell line carrying CD8. The method, then: as §1
The target of experiment [4] is T1, human CD8. Description: cell binding; read as HPB-ALL cells ('respectively' taken to mean the cell types, as in p-1525).
The target in experiment [5] is T1, human CD8. The experiment is described as follows: cell binding; read as purified human T cells ('respectively' taken to mean the cell types, as in p-1525).

Broadly, the EC50 is the concentration giving half of the maximal effect. Read a low EC50 as greater potency.

T1 sequence (P01732 22-235 limits assumed, chain 1 of 2): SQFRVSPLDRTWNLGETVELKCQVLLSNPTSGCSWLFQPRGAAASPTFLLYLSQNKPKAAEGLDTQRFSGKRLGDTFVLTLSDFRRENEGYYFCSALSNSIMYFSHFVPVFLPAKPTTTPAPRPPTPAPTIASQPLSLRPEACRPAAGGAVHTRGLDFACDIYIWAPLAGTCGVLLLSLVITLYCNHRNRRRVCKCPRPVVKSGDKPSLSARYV
T1 sequence (A6NJW9 19-210 C51R/T71A limits assumed, chain 2 of 2): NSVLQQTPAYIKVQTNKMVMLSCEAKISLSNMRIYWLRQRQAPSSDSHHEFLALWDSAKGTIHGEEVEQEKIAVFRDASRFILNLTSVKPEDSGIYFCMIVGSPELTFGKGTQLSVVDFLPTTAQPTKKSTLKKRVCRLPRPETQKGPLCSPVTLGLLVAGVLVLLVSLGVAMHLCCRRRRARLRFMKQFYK

B1: 89Zr-Df-IAB22M2C (other)
chain: DVQITQSPSSLSASVGDRVTITCRTSRSISQYLAWYQQKPGKVPKLLIYSGSTLQSGVPSRFSGSGSGTDFTLTISSLQPEDVATYYCQQHNENPLTFGGGTKVEIKGSTSGGGSGGGSGGGGSSEVQLVESGGGLVQPGGSLRLSCAASGFNIKDTYIHFVRQAPGKGLEWIGRIDPANDNTLYASKFQGKATISADTSKNTAYLQMNSLRAEDTAVYYCGRGYGYYVFDHWGQGTLVTVSSEPKSSDKTHTCPPCPPCGGGSSGGGSGGQPREPQVYTLPPSREEMTKNQVSLTCLVKGFYPSDIAVEWESNGQPENNYKTTPPVLDSDGSFFLYSKLTVDKSRWQQGNVFSCSVMHEALHNHYTQKSLSLSPG
modifications: deferoxamine (Df) conjugated to lysine residues, radiolabeled with 89Zr
notes: Radiolabeled drug product; Same polypeptide as m1; For patients it is formulated together with cold unconjugated IAB22M2C; also called 89Zr-Df-IAB22M Lot: 42-040A; CD8 PET tracer
B1 came in with an EC50 with human CD8 [1] of 0.4 nM. This counts as sub-nanomolar.

B2: IAB22M2C (other)
chain: B1 chain
notes: also called IAB22M2C Mb; IAB22M2C minibody
Turning to B2, the EC50 amounted to 0.4 nM with human CD8 [2] and 0.3 nM with human CD8 [3].

B3: Df-IAB22M2C (other)
chain: B1 chain
modifications: deferoxamine (Df) conjugated to lysine residues; chelator:minibody ratio of approximately 2
notes: Same polypeptide as m1; also called desferrioxamine-conjugated IAB22M2C; Df-IAB22M2C critical intermediate
Turning to B3, the EC50 with human CD8 [4] was 0.3 nM; with human CD8 [5], 0.4 nM.
